Earlier results in paper PMC7687576 (In Vitro Cellular & Developmental Biology. Animal, 2020).

How the values were obtained:
EpiIntestinal tissues = settings: IL-6 5–20 ng/mL for 72 h; ref Simon et al. [2019]
CYP3A4 [1] = settings: EpiIntestinal tissues; ref Cui et al. [2020]
CYP3A4 [2] = settings: Caco-2 cultures; ref Cui et al. [2020]

Row | Compound | decrease in CYP450 activity level (EpiIntestinal tissues) | reduction of CYP450 mRNA expression (CYP2C19, CYP2C9, CYP3A4) (EpiIntestinal tissues) | amount of 1-hydroxymidazolam (CYP3A4-selective metabolite) detected (CYP3A4 [1]) | amount of 1-hydroxymidazolam metabolite detected (CYP3A4 [2])
1 | IL-6: pro-inflammatory cytokine IL-6 | 20–75% | 40–50% | – | –
2 | Cc1ncc2n1-c1ccc(Cl)cc1C(c1ccccc1F)=NC2 [Midazolam] | – | – | substantial amount | negligible amount
